Measurements as given in US20230331869A1.

Tests used:
Experiment in all cases: fibrinogen 15mer peptide array
FIBG 123-137 = biological target: T1, FIBG 123-137
T1 sequence (peptide): NLKEKVAQLEAQCQE

FIBG 303-317 = biological target: T2, FIBG 303-317
T2 sequence (peptide): FFTSHNGMQFSTWDN

FIBG 202-216 = biological target: T3, FIBG 202-216
T3 sequence (peptide): DFKKNWIQYKEGFGH

FIBG 214-228 = biological target: T4, FIBG 214-228
T4 sequence (peptide): FGHLSPTGTTEFWLG

FIBA 602-616 = biological target: T5, FIBA 602-616
T5 sequence (peptide): RGHAKSRPVRGIHTS

FIBA 514 528 = biological target: T6, FIBA 514 528
T6 sequence (peptide): FSPMLGEFVSETESR

FIBG 7-21 = biological target: T7, FIBG 7-21
T7 sequence (peptide): NCCILDERFGSYCPT

FIBG 15-29 = biological target: T8, FIBG 15-29
T8 sequence (peptide): FGSYCPTTCGIADFL

FIBG 335-349 = biological target: T9, FIBG 335-349
T9 sequence (peptide): WMNKCHAGHLNGVYY

FIBA 507-521 = biological target: T10, FIBA 507-521
T10 sequence (peptide): FPGFFSPMLGEFVSE

FIBG 206-220 = biological target: T11, FIBG 206-220
T11 sequence (peptide): NWIQYKEGFGHLSPT

FIBG 287-301 = biological target: T12, FIBG 287-301
T12 sequence (peptide): GDAFDGFDFGDDPSD

FIBA 218-232 = biological target: T13, FIBA 218-232
T13 sequence (peptide): FKSQLQKVPPEWKAL

[1] = substrate: T14, FIBB 391-405
T14 sequence (peptide): RKQCSKEDGGGWWYN

[2] = substrate: T15, FIBB 283-297
T15 sequence (peptide): KNYCGLPGEYWLGND

[3] = substrate: T16, FIBB 395-409
T16 sequence (peptide): SKEDGGGWWYNRCHA

[4] = substrate: T17, FIBB 107-121
T17 sequence (peptide): VSQTSSSSFQYMYLL

[5] = substrate: T18, FIBB 415-429
T18 sequence (peptide): RYYWGGQYTWDMAKH

[6] = substrate: T19, FIBB 63-77
T19 sequence (peptide): GGCLHADPDLGVLCP

[7] = substrate: T20, FIBB 407-421
T20 sequence (peptide): CHAANPNGRYYWGGQ

[8] = substrate: T21, FIBB 315-329
T21 sequence (peptide): EDWKGDKVKAHYGGF

[9] = substrate: T22, FIBB 427-431
T22 sequence (peptide): AKHGTDDGVVWMNWK

[10] = substrate: T23, FIBB 235-249
T23 sequence (peptide): PYRVYCDMNTENGGW

[11] = substrate: T24, FIBB 139-153
T24 sequence (peptide): VNEYSSELEKHQLYI

[12] = substrate: T25, FIBB 191-205
T25 sequence (peptide): EYCRTPCTVSCNIPV

[13] = substrate: T26, FIBB 319-333
T26 sequence (peptide): GDKVKAHYGGFTVQN

[14] = substrate: T27, FIBB 258-262
T27 sequence (peptide): SVDFGRKWDPYKQGF

[15] = substrate: T28, FIBB 71-85
T28 sequence (peptide): DLGVLCPTGCQLQEA

B1: antibody G or 45-C1C3 antibody (antibody, V domains shown)
VH: EVQLVESGGGAVQPGRSLRLSCAASGVSFSNIGMHWVRQAPGKGLEWVALISSDGRHTHYADSVKGRFTISRDNSENTLYLQINGLRADDTAVYYCAKGLDTRARYMGKFYTFDYWGQGTLVTVSS
VL: DIQLTQSPSSLSASVGDRVTITCRASQNIGVNLNWYQQRPGKGPKLLVSSTFSLQSGVPSRFSASGAGTNFTLTISSLQPEDYVTYYCQQSYSSPFTFGPGTKVDIK
signal intensity (RLU) (FIBG 123-137): 3130 RLU | signal intensity (RLU) (FIBG 303-317): 6750 RLU | signal intensity (RLU) (FIBG 202-216): 9080 RLU | signal intensity (RLU) (FIBG 214-228): 8260 RLU | signal intensity (RLU) (FIBA 602-616): 2570 RLU | signal intensity (RLU) (FIBA 514 528): 5030 RLU | signal intensity (RLU) (FIBG 7-21): 5760 RLU | signal intensity (RLU) (FIBG 15-29): 3150 RLU | signal intensity (RLU) (FIBG 335-349): 50000 RLU | signal intensity (RLU) (FIBA 507-521): 3370 RLU | signal intensity (RLU) (FIBG 206-220): 6580 RLU | signal intensity (RLU) (FIBG 287-301): 11400 RLU | signal intensity (RLU) (FIBA 218-232): 6880 RLU | signal intensity (RLU) [1]: 2980 RLU | signal intensity (RLU) [2]: 8780 RLU | signal intensity (RLU) [3]: 3470 RLU | signal intensity (RLU) [4]: 2930 RLU | signal intensity (RLU) [5]: 12900 RLU | signal intensity (RLU) [6]: 2780 RLU | signal intensity (RLU) [7]: 9200 RLU | signal intensity (RLU) [8]: 5070 RLU | signal intensity (RLU) [9]: 2640 RLU | signal intensity (RLU) [10]: 3610 RLU | signal intensity (RLU) [11]: 6790 RLU | signal intensity (RLU) [12]: 2790 RLU | signal intensity (RLU) [13]: 2670 RLU | signal intensity (RLU) [14]: 6910 RLU | signal intensity (RLU) [15]: 2550 RLU
